According to US20090074795A1, “Methods for addressing ocular diseases through interference with the wnt signaling pathway” (priority 2007, published 2009):

Assays:
[1] = test system: Vldlr^−/− mice; assay: Subretinal injection of purified mouse DKK1 in Vldlr−/− mice (β-catenin phosphorylation, VEGF in eyecup); type: in vivo
Protocol: To confirm the association of the wnt pathway activation with VEGF over-expression in Vldlr^−/− mice, 5 μg purified mouse DKK1, a specific inhibitor of the wnt signal pathway by binding with LRP5/6, were injected into the subretinal space of the Vldlr^−/− mice into one eye and the same amount of a control protein (BSA) into the contralateral eye. Twenty-four hours after the injection, β-catenin phosphorylation and VEGF levels in the eyecup were measured by western blot analysis.
Vldlr^−/− mice received a subretinal injection of 5 μg purified mouse DKK1 into the right eyes, and the same amount BSA into the left eyes. According to embodiments shown in FIG. 9A, The eyecups were dissected 24 h following the injection for the following analyses, phosphorylated β-catenin and VEGF levels were measured by Western blot analysis of a representative mouse eyecup using the anti-phosphorylated β-catenin and anti-VEGF antibodies, respectively. According to embodiments shown in FIG. 9B, VEGF protein levels in Vldlr^−/− eyecups were measured using ELISA. According to embodiments shown in FIG. 9C, VEGF mRNA levels in the Vldlr^−/− eyecups were measured using quantitative real-time RT-PCR. Values are mean±SD (n=4). According to embodiments shown in FIGS. 9D-9G, Vldlr^−/− mice were injected with 5 μg/eye BSA into the subretinal space of the left eye (FIGS. 9D and 9F) and the same amount of DKK1 into the right eye (FIGS. 9E and 9G). The ocular sections were immunostained with an anti-VEGF antibody (FIGS. 9D and 9E) and an anti-β-catenin antibody (FIGS. 9F and 9G). 400×. PRL, photoreceptor layer. According to embodiments shown in FIGS. 9H and 9I, HUVEC were transfected with the VLDLR siRNA. The transfected cells were treated with 10 μg/ml human DKK1or BSA. VEGF protein was measured in the culture medium by ELISA (FIG. 9H) and the VEGF mRNA measured in the cells by real-time RT-PCR, normalized by 18s RNA and expressed as arbitrary unit (mean±SD, n=3) (FIG. 9I), 24 hours after the addition of DKK1.
VEGF ELISA: The human VEGF QuantiGlo ELISA kit (R&D Systems, Inc., Minneapolis, Minn.) was used to measure VEGF levels in HUVEC and ARPE19 cells, and the mouse VEGF Quantikine ELISA kit (R&D Systems, Inc.) was used for mouse tissues following the manufacturer's protocol. The samples of the culture medium were concentrated 10 times, and the samples from mouse tissues were diluted 10 times to ensure that the VEGF concentration fell within the range of the VEGF standard curves.
Western Blot Analysis: The same amount (100 μg) of total proteins from mouse eyecups were used for Western blot analysis using specific primary antibodies for each protein and blotted with an horseradish peroxidase-conjugated secondary antibody. The signal was developed with a chemiluminescence detection kit (ECL; Amersham Biosciences). Blots were then stripped and re-blotted with an antibody specific for β-actin. Each protein band was semiquantified by densitometry and normalized by β-actin levels in the same gel.
Quantitative Real-time Reverse Transcription (RT)-PCR: Mice eyes were enucleated immediately after death into chilled diethylpyrocarbonate-treated normal saline, and the retinas were dissected. Total RNA was isolated using a commercial kit (Qiagen, Santa Clarita, Calif.). […] Fluorescence changes were monitored after each cycle. […] The average CT (threshold cycle) of fluorescence unit was used to analyze the mRNA levels. […]

[2] = test system: STZ-diabetic rats; assay: Retinal ICAM-1 (sICAM-1 ELISA) after intravitreal DKK1 in STZ-diabetic rats; type: in vivo, rat; details: different doses intravitreal, STZ-diabetic rats 16 weeks after onset, 2 days after injection, vs BSA
Protocol: To determine the role of wnt pathway in retinal inflammation in diabetic retinopathy, different doses of purified DKK1, a specific inhibitor of the wnt pathway, was injected into the vitreous of the right eye of STZ-diabetic rats. As shown by ELISA, diabetes induced over-expression of ICAM-1 in the retina.
According to embodiments of experimental data shown in FIG. 13, different doses of purified DKK1 were injected intravitrealy into the right eye of STZ-diabetic rats at 16 weeks following the onset of diabetes, and the same amounts of BSA into the left eye for control. Soluble ICAM-1 was measured at 2 days after the injection using the sICAM-1 ELISA kit, normalized by total protein concentrations and expressed as ng.
(§1) Intravitreal injection: All solutions will be sterilized by filtration and assessed for endotoxin. Animals will be anesthetized, and compounds will be injected into the vitreous of the one eye through the pars plana using a Hamilton syringe. The left eye will receive the same volume of vehicle and will be used as the control. Following injection, the animals will receive equal amounts of topical antibiotic ointment on both eyes. The animals will then be kept in normoxic conditions until the necessary time point for evaluation

[3] = test system: OIR rats; assay: Retinal VEGF (western blot) after intravitreal DKK1 in OIR rats; type: in vivo, rat; details: 3 μg/eye intravitreal at P15, retinas at P18, western blot, vs BSA
Protocol: To determine the effect of the wnt pathway blockade of the VEGF expression induced by ischemia, DKK1 was injected into the vitreous of the OIR rats at P15. The rats were then maintained in normoxia for 3 days, and the VEGF expression in the retina was measured.
The same amount of BSA was injected as control. The same amount of total protein from each rat was used for western blot analysis using specific antibody for VEGF. Each lane represents an individual rat.
as §1

[4] = 5 μg/eye subretinal, immunohistochemistry, vs BSA contralateral eye

B1: DKK1: Purified Dickkopf-1 protein (R&D System), specific inhibitor of the wnt pathway binding LRP5/6; mouse protein in mice, human in HUVEC (protein, UniProt O54908 32-272; O54908 32-272, looked up)
Dickkopf-related protein 1 1: TLNSVLINSNAIKNLPPPLGGAGGQPGSAVSVAPGVLYEGGNKYQTLDNYQPYPCAEDEECGSDEYCSSPSRGAAGVGGVQICLACRKRRKRCMRHAMCCPGNYCKNGICMPSDHSHFPRGEIEESIIENLGNDHNAAAGDGYPRRTTLTSKIYHTKGQEGSVCLRSSDCAAGLCCARHFWSKICKPVLKEGQVCTKHKRKGSHGLEIFQRCYCGEGLACRIQKDHHQASNSSRLHTCQRH
Dickkopf-related protein 1 2: B1 Dickkopf-related protein 1 1
modifications: mouse protein in mice, human in HUVEC
- VEGF mRNA levels in Vldlr−/− eyecups ([1]; 5 μg subretinal, 24 h, real-time RT-PCR, vs BSA): significantly decreased
- phosphorylation of β-catenin in eyecup ([1]; 5 μg subretinal, 24 h, western blot, vs BSA contralateral eye): increased phosphorylation of β-catenin
- VEGF protein levels in Vldlr−/− eyecups ([1]; 5 μg subretinal, 24 h, western blot/ELISA, vs BSA): significantly decreased
- levels of VEGF in the RPE [1, 4]: significantly decreased
- levels of β-catenin in the RPE [1, 4]: significantly decreased
- ICAM-1 over-expression in the retina [2]: inhibited the ICAM-1 over-expression in a dose-dependent manner
- VEGF over-expression in the retina [3]: significantly blocked VEGF over-expression
